Results: patent US10415067B2, “Method for the enzymatic production of D-erythrose and acetyl phosphate” (SCIENTIST OF FORTUNE S.A., priority 2014, dated 2019)

How the values were obtained:
[1] = target: T1, Bifidobacterium pseudolongum subsp. globosum phosphoketolase, Uniprot Q6R2Q6, SEQ ID NO: 1 (Bifidobacterium pseudolongum, UniProt Q6R2Q6); assay: Kinetics of acetyl phosphate formation from D-fructose (hydroxamate-based colorimetric assay); assay type: biochemical; settings: D-fructose 0-500 mM, 50 mM sodium phosphate, pH 7.5, 37° C., 3 mg/ml enzyme
T1 sequence (Q6R2Q6 1-825): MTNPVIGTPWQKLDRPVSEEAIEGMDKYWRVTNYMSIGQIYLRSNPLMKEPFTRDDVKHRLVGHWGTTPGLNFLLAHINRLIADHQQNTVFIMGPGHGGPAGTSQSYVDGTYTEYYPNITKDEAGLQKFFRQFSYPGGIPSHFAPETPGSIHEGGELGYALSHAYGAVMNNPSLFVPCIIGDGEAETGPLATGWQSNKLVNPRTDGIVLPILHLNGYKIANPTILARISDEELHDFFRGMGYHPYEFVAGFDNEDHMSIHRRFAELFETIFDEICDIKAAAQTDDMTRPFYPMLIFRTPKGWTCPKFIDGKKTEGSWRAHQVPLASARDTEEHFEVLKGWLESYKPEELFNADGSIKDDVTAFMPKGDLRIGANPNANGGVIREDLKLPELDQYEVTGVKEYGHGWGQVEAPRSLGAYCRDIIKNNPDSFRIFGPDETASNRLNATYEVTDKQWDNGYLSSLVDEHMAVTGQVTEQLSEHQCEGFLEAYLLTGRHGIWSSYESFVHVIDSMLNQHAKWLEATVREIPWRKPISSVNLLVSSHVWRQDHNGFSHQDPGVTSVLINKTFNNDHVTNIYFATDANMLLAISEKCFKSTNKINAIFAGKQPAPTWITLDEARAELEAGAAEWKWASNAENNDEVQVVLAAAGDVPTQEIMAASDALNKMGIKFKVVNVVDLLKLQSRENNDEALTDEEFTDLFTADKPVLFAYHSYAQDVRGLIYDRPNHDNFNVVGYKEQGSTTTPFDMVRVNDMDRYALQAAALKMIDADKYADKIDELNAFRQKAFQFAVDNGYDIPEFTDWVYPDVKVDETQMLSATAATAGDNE
Text: (§1) The sequences of phosphoketolases inferred from the genomes of prokaryotic organisms were generated by oligonucleotide concatenation to fit the codon usage of E. coli (genes were commercially synthesized by GeneArt®). A stretch of 6 histidine codons was inserted after the methionine initiation codon to provide an affinity tag for purification. The genes thus synthesized were cloned in a modified pUC18 expression vector (New England Biolabs) containing a modified Multiple Cloning Sites (MCS). The genes of interest were cloned at PacI and NotI restriction sites. Competent MG1655 E. coli cells were transformed with these vectors using standard heat shock procedure. The transformed cells were grown in LB-ampicillin medium for 24 h at 30° C., 160 rpm shaking.
(§2) The pellets from 200 ml of cultured cells were thawed on ice and resuspended in 3 ml of 50 mM Tris-HCl pH 7.5 containing 300 mM NaCl, 5 mM MgCl2, 1 mM DTT and 10 mM Imidazole. 10 μl of lysonase (Merck) was added. […] Protein concentrations were quantified by direct UV 280 nm measurement on the NanoDrop 1000 spectrophotometer (Thermo Scientific). […]
(§3) The composition of enzymatic reactions was identical to that described above. Kinetic parameters were determined using a range of D-fructose concentrations (0-500 mM) and a constant concentration of sodium phosphate (50 mM). […]

[2] = target: Lactococcus lactis subsp. lactis (strain KF147) phosphoketolase, Uniprot A9QST6, SEQ ID NO: 3 (Lactococcus lactis, UniProt Q9CFH4); assay: as above; assay type: biochemical; settings: D-fructose 0-500 mM, 50 mM sodium phosphate, pH 7.5, 37° C., 3 mg/ml enzyme
Text: as §1, §2, §3

[3] = substrate: O=CCO; assay: Kinetics of acetyl phosphate formation from glycolaldehyde (hydroxamate-based colorimetric assay); assay type: biochemical, Bifidobacterium pseudolongum subsp. globosum; settings: other: glycolaldehyde 0-100 mM, 50 mM sodium phosphate, pH 7.5, 37° C., 3 mg/ml enzyme
Text: as §1, §2
(§4) 0.1 ml of hydroxylamine hydrochloride (2 M, pH 6.5) was added to 0.1 ml of reaction mixture. […] The samples were further clarified by centrifugation and the absorbance of ferric acetyl-hydroxamate complex was measured at 505 nm. […]

[4] = substrate: O=CCO; assay: as above; assay type: biochemical, Lactococcus lactis subsp. lactis (strain KF147); settings: other: glycolaldehyde 0-100 mM, 50 mM sodium phosphate, pH 7.5, 37° C., 3 mg/ml enzyme
Text: as §1, §2, §4

[5] = substrate: O=CCO; assay: as above; assay type: biochemical, Clostridium acetobutylicum (strain ATCC 824); settings: other: glycolaldehyde 0-100 mM, 50 mM sodium phosphate, pH 7.5, 37° C., 3 mg/ml enzyme
Text: as §1, §2, §4

## OCC1(O)OC[C@@H](O)[C@@H](O)[C@@H]1O (stereo partly drawn) [D-fructose]
[1]
  kcat: 0.10 ± 0.02 s⁻¹
[2]
  kcat: 0.11 ± 0.04 s⁻¹

B1: Bifidobacterium pseudolongum subsp. globosum phosphoketolase, Uniprot Q6R2Q6, SEQ ID NO: 1 (Bifidobacterium pseudolongum subsp. globosum) (protein)
chain: MTNPVIGTPWQKLDRPVSEEAIEGMDKYWRVTNYMSIGQIYLRSNPLMKEPFTRDDVKHRLVGHWGTTPGLNFLLAHINRLIADHQQNTVFIMGPGHGGPAGTSQSYVDGTYTEYYPNITKDEAGLQKFFRQFSYPGGIPSHFAPETPGSIHEGGELGYALSHAYGAVMNNPSLFVPCIIGDGEAETGPLATGWQSNKLVNPRTDGIVLPILHLNGYKIANPTILARISDEELHDFFRGMGYHPYEFVAGFDNEDHMSIHRRFAELFETIFDEICDIKAAAQTDDMTRPFYPMLIFRTPKGWTCPKFIDGKKTEGSWRAHQVPLASARDTEEHFEVLKGWLESYKPEELFNADGSIKDDVTAFMPKGDLRIGANPNANGGVIREDLKLPELDQYEVTGVKEYGHGWGQVEAPRSLGAYCRDIIKNNPDSFRIFGPDETASNRLNATYEVTDKQWDNGYLSSLVDEHMAVTGQVTEQLSEHQCEGFLEAYLLTGRHGIWSSYESFVHVIDSMLNQHAKWLEATVREIPWRKPISSVNLLVSSHVWRQDHNGFSHQDPGVTSVLINKTFNNDHVTNIYFATDANMLLAISEKCFKSTNKINAIFAGKQPAPTWITLDEARAELEAGAAEWKWASNAENNDEVQVVLAAAGDVPTQEIMAASDALNKMGIKFKVVNVVDLLKLQSRENNDEALTDEEFTDLFTADKPVLFAYHSYAQDVRGLIYDRPNHDNFNVVGYKEQGSTTTPFDMVRVNDMDRYALQAAALKMIDADKYADKIDELNAFRQKAFQFAVDNGYDIPEFTDWVYPDVKVDETQMLSATAATAGDNE
[3]
  Km: ≈20 mM mM
  kcat: 0.07 s⁻¹

B2: Lactococcus lactis subsp. lactis (strain KF147) phosphoketolase, Uniprot A9QST6, SEQ ID NO: 3 (Lactococcus lactis subsp. lactis Il1403) (protein)
chain: MTEYNSEAYLKKLDKWWRAATYLGAGMIFLKENPLFSVTGTPIKAENLKANPIGHWGTVSGQTFLYAHANRLINKYNQKMFYMGGPGHGGQAMVVPSYLDGSYTEAYPEITQDLEGMSRLFKRFSFPGGIGSHMTAQTPGSLHEGGELGYVLSHATGAILDQPEQIAFAVVGDGEAETGPLMTSWHSIKFINPKNDGAILPILDLNGFKISNPTLFARTSDVDIRKFFEGLGYSPRYIENDDIHDYMAYHKLAAEVFDKAIEDIHQIQKDAREDNRYQNGEIPAWPIVIARLPKGWGGPRYNDWSGPKFDGKGMPIEHSFRAHQVPLPLSSKNMGTLPEFVKWMTSYQPETLFNADGSLKEELRDFAPKGEMRMASNPVTNGGVDYSNLVLPDWQEFANPISENNRGKLLPDTNDNMDMNVLSKYFAEIVKLNPTRFRLFGPDETMSNRFWEMFKVTNRQWMQVIKNPNDEFISPEGRIIDSQLSEHQAEGWLEGYTLTGRTGVFASYESFLRVVDSMLTQHFKWIRQAADQKWRHDYPSLNVISTSTVFQQDHNGYTHQDPGMLTHLAEKKSDFIRQYLPADGNTLLAVFDRAFQDRSKINHIVASKQPRQQWFTKEEAEKLATDGIATIDWASTAKDGEAVDLVFASAGAEPTIETLAALHLVNEVFPQAKFRYVNVVELGRLQKKKGALNQERELSDEEFEKYFGPSGTPVIFGFHGYEDLIESIFYQRGHDGLIVHGYREDGDITTTYDMRVYSELDRFHQAIDAMQVLYVNRKVNQGLAKAFIDRMERTLVKHFEVTRNEGVDIPEFTEWVWSDLKK
[4]
  Km: ≈25 mM mM
  kcat: 0.05 s⁻¹

B3: Clostridium acetobutylicum (strain ATCC 824) phosphoketolase, Uniprot Q97JE3, SEQ ID NO: 2 (Clostridium acetobutylicum ATCC 824) (protein)
chain: MQSIIGKHKDEGKITPEYLKKIDAYWRAANFISVGQLYLLDNPLLREPLKPEHLKRKVVGHWGTIPGQNFIYAHLNRVIKKYDLDMIYVSGPGHGGQVMVSNSYLDGTYSEVYPNVSRDLNGLKKLCKQFSFPGGISSHMAPETPGSINEGGELGYSLAHSFGAVFDNPDLITACVVGDGEAETGPLATSWQANKFLNPVTDGAVLPILHLNGYKISNPTVLSRIPKDELEKFFEGNGWKPYFVEGEDPETMHKLMAETLDIVTEEILNIQKNARENNDCSRPKWPMIVLRTPKGWTGPKFVDGVPNEGSFRAHQVPLAVDRYHTENLDQLEEWLKSYKPEELFDENYRLIPELEELTPKGNKRMAANLHANGGLLLRELRTPDFRDYAVDVPTPGSTVKQDMIELGKYVRDVVKLNEDTRNFRIFGPDETMSNRLWAVFEGTKRQWLSEIKEPNDEFLSNDGRIVDSMLSEHLCEGWLEGYLLTGRHGFFASYEAFLRIVDSMITQHGKWLKVTSQLPWRKDIASLNLIATSNVWQQDHNGYTHQDPGLLGHIVDKKPEIVRAYLPADANTLLAVFDKCLHTKHKINLLVTSKHPRQQWLTMDQAVKHVEQGISIWDWASNDKGQEPDVVIASCGDTPTLEALAAVTILHEHLPELKVRFVNVVDMMKLLPENEHPHGLSDKDYNALFTTDKPVIFAFHGFAHLINQLTYHRENRNLHVHGYMEEGTITTPFDMRVQNKLDRFNLVKDVVENLPQLGNRGAHLVQLMNDKLVEHNQYIREVGEDLPEITNWQWHV
[5]
  Km: ≈30 mM mM
  kcat: 0.08 s⁻¹
